Measurements reported in the supplement of paper PMC9170038.

System: K4 kissing-loop RNA reporter
Assay: apparent KD of K4 kissing-loop reporter; higher = weaker reporter binding
Details: Eterna round: R107
Procedure: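 RNA-MaP round R107: designed RNA switches with theophylline, tryptophan, arginine or FMN aptamers are transcribed on-chip within common flanks. They are titrated with a labelled K4 kissing-loop RNA reporter in RNA-MaP buffer (100 mM Tris pH 7.5, 80 mM KCl, 4 mM MgCl2), without ligand or with the indicated ligand. Median apparent KD per design.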

[1] = input ligand: theophylline 20 uM
[2] = input ligand: tryptophan 2.4 mM
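Also: bound reporter read as fluorescence of individual clusters on recovered sequencing chips by microscopy, with normalized cluster intensities fitted with a binding model.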

| Sequence | apparent KD of K4 kissing-loop reporter (input ligand: FMN 200 uM) | apparent KD of K4 kissing-loop reporter (input ligand: arginine 13.2 mM) | apparent KD of K4 kissing-loop reporter (input ligand: none) | apparent KD of K4 kissing-loop reporter [1] | apparent KD of K4 kissing-loop reporter [2] |
| --- | --- | --- | --- | --- | --- |
| GGUAGCAUGGCGGCCGCCACUAACAACCUCACCUGCGGCUCGAUCGAGUGAUGUUCGAACGCAAUUAGGACCGGGCCAUGCUACC | 243 nM | 64.8 nM | 141 nM | 143 nM | 122 nM |
| GGUAGCAUGGCGGCCGCCACUCGCAUCACAGGCCAUUAACCGCCCUCGUAAAGUGAUGUUUUACAGAGGACCGGGCCAUGCUACC | 331 nM | 257 nM | 297 nM | 323 nM | 195 nM |
| GGUAGCAUGGCGGCCGCCACUGAGGCCCUAUACGAGUCCUAAACAACCUAGUGAUGUUAGGAGUCCAGGACCGGGCCAUGCUACC | 271 nM | 175 nM | 254 nM | 262 nM | 440 nM |
| GGUAGUGCUAGCGAUACCAGUCAUAUCGCUCUGGAGUGAUGUUCCGGAACGUGCGGAGAAGACCCUUGGCAGCGCUUGACGGUGU [Exclusion Theophylline B GF5] | 218 nM | 234 nM | 318 nM | 251 nM | 298 nM |
| GGUCCGCGGUCGGCCGCCACUGAACAAGACCAGUGAUGUUGGAUCUUCCAGUGCGUUGGCUUUAACAGGACCGGGACCGUGGAGC [Titia] | 139 nM | 132 nM | 145 nM | 140 nM | 164 nM |
| GGUGACAACCAGAGGUGAUGUAUAGUAUCGCGAGGACCGGUACGGCCGCCACUCGUGAAGAGAAAGGAGUGAUGUUCCGUAAUGG [Kazoo C7] | 287 nM | 276 nM | 272 nM | 390 nM | 138 nM |
| GGUGUGCCAGUGAUGUUGGCAUAAACUGAAGGAGCGCGUGAAAACGCAGGUAGGUCGCAGAACCUUGCCAACUAUUUUAUUCACC [Ex Arginine A K4 25] | 181 nM | 174 nM | 176 nM | 236 nM | 168 nM |
| GGUUAGUGAUGUUGAUCAAAUCGCGGUGAUACCAGCAACACAUCGUGCCCUUGGCAGCACGGCAAAAUGAAUGCGGUCGAAUGCG [theeternabot_exclusion_KL_Theo_A_19] | 487 nM | 484 nM | 546 nM | 478 nM | 412 nM |
| GUACGGCGGGCGGCCGCCACUGGUAUACGAGUGAUGUUCGGAUAUACGUGAUGUAUGGUAAUUAACAGGACCGGGUCAGGGCCGG [whbob_SS_Tryp_B_t23] | 115 nM | 158 nM | 229 nM | 147 nM | 119 nM |
| GUAGCACUUGACAGUGAUGUUGUCAAGGACAAGGAUAUCAUCUCAAUGAGAAGGUGUCCUUGAUAACAGCUACGGGAAUAUCCCA [Omei KL FMN A Exc D v3] | 312 nM | 108 nM | 136 nM | 120 nM | 123 nM |
| GUAGCACUUGAUAGUGAUGUUAUCAAGGACAAGGAUAUCAUCUCAAUGAGAAGGUGUCCUUGAUAACAGCUACGGGAAUAUCCCA [Omei KL FMN A Exc D v1] | 103 nM | 267 nM | 288 nM | 280 nM | 312 nM |
| GUAGGAUGAGGAGGAGGAUGAAUUACUGAAGGAGCGCAUAUAAAUGCAGGUAGGUCGCGGUAAAGAAGUAUAGUGAUGUUAUAUA [SSArgA.G] | 421 nM | 636 nM | 580 nM | 438 nM | 329 nM |
| GUCAUCAGAUCGCAAGAUCUGAUAGCCGAUACCAGCGCGAAGGUGCGCCCUUGGCAGCGGCACCGAGUGAUGUUCGGUCAGACGG [#2 Same State - Theophylline A Attempt #4 (HarryS)] | 658 nM | 796 nM | 776 nM | 440 nM | 594 nM |
| GUCCCAGUGAUGUUGGUAGGCGGGCGGGAUACCAGCGGAGACUCACGCCCUUGGCAGCCCACAUAUCCCGCGUAGGGAUUAGCCC [Same State - Theophylline A (Freestyle 23)] | 285 nM | 258 nM | 316 nM | 339 nM | 275 nM |
| GUCCCGAGUGAUGUUCGGGUCGUUCGGGAAGGAGCGCCCGGAAGGGCAGGUAGGUCGCCCGGAUCCCUCAGGUAACUGAGGGACC [#2 Same State - Arginine A Attempt #25 (HarryS)] | 483 nM | 334 nM | 553 nM | 450 nM | 466 nM |
| GUCCCGAGUGAUGUUCGGGUCGUUUGGGAAGGAGCGCCCGGAAGGGCAGGUAGGUCGCCCGGACCCUGCAGGUAACUGUUGGGCC [#2 Same State - Arginine A Attempt #19 (HarryS)] | 206 nM | 154 nM | 210 nM | 215 nM | 194 nM |
| GUCUCAAAAGAGGCAAGCACUAACGAGGACAAGGAUAUCAUCUCAAUGAGAAGGUGUCCUCGUCCUUAGUGAUGUUAAGGAGUGC [Omei KL FMN A SS E v5] | 348 nM | 226 nM | 211 nM | 376 nM | 356 nM |
| GUGCGCGCGGCGGCCGCCACUCGCAUGAGAGUGAUGUUCUCACCGUGACCGUAAGGUCGCGGUGUGAGGACCGGGCCGGGCUGCG [#2 Same State - Tryptophan B Attempt #24 (HarryS)] | 181 nM | 114 nM | 207 nM | 59.5 nM | 270 nM |
| GUGCGCGGUGCGGCCGCCACUCGGAUGCGAGUGAUGUUCGCGGGACGGACGCAAGUCCGUCAUUCGAGGACCGGGCAUGGCUGCA [#2 Same State - Tryptophan B Attempt #6 (HarryS)] | 197 nM | 196 nM | 242 nM | 183 nM | 137 nM |
| GUGCGGCUAGUGAUGUUGGUUGUGUGGGAAGGAGCGCAGAUUCAUGCAGGUAGGUCGCCCACACCUCUGAAAGGAGGCUAAUUCA [KL-SSArg-A16] | 453 nM | 300 nM | 315 nM | 368 nM | 331 nM |
| GUGCGGCUAGUGAUGUUGGUUGUGUGGGAAGGAGCGCAGAUUCAUGCAGGUAGGUCGCCCACACGUCUGAAAGGAUGAUAAUUCA [#12 K4 Arginine A Same State] | 409 nM | 306 nM | 354 nM | 407 nM | 350 nM |

| Sequence | apparent KD of K4 kissing-loop reporter (input ligand: FMN 200 uM) | apparent KD of K4 kissing-loop reporter (input ligand: arginine 13.2 mM) | apparent KD of K4 kissing-loop reporter (input ligand: none) | apparent KD of K4 kissing-loop reporter [1] | apparent KD of K4 kissing-loop reporter [2] |
| --- | --- | --- | --- | --- | --- |
| GUGGCACGAAAGUGCCACGCAUCCUCUCCCUAGGAUAUCUGGAAACAGAGAAGGAGGUCAUGAGUGAUGUUCAUCCAGAGGAUGC | 258 nM | 677 nM | 756 nM | 738 nM | 491 nM |
| GUUACGCAUGGAAGGAGCGCAGGCUCAACUUGAAGCUCAGUGAUGUUGAGCAAAUUAAAACUGCAGGUAGGUCGCCAUGUGUAAC [Ex Arginine B K4 27] | 548 nM | 474 nM | 655 nM | 644 nM | 448 nM |
| GUUACGCAUGGAAGGAGCGCAUGCUCAACAAUAAGCUCAGUGAUGUUGAGCAAAAUUAAAAUGCAGGUAGGUCGCCAUGUGUAAC [Ex Arginine B K4 28] | 542 nM | 519 nM | 576 nM | 528 nM | 555 nM |
| GUUAUGGACCUGGAUACCAGCUGGUACAAGGUCGGUCUACAUGAGUGAUGUUCAUGUGUCAGCCCUUGGCAGCCAGCAACCGGCA [KL-XTheo-B10] | 90.3 nM | 97.1 nM | 101 nM | 119 nM | 86.2 nM |
| UAAGAAUAAGUAGCAGUGAUGUUGCUACUACGAGGACCGGUACGGCCGCCACUCGAGUCCUCGAAACAUCACUGAACGAGGAAUA [(H,1)-(H,2)-(Trp1)-(Trp2)-(T)'-(H)'-(T)''] | 231 nM | 150 nM | 201 nM | 136 nM | 358 nM |
| UAAGAGGACCACUGCAAGAGUCCUCGAAUACGAGGACCGGUACGGCCGCCACUCGAUAACUUGUAGUGAUGUUGCAAGUAAGAAU [BrourdMod 1 - Jieux - Same State Tryptophan A] | 71.2 nM | 79.2 nM | 79.4 nM | 79.2 nM | 42.9 nM |
| UAAGAGGACCACUGCGAGAGUCCUCGAAUACGAGGACCGGUACGGCCGCCACUCGAUAAUUUGCAGUGAUGUUGCAAGUAAGAAU [BrourdMod 6 - Jieux - Same State Tryptophan A] | 64.5 nM | 114 nM | 82.4 nM | 104 nM | 48.6 nM |
| UAAGAGUCUCUGCAAUUAGCAGAGACUCAACGAGGACCGGUACGGCCGCCACUCGGGUCCUAGAGUGAUGUUCUAAUAAUAUAAU [AK1.1 SS Tryptophan A] | 273 nM | 359 nM | 548 nM | 425 nM | 176 nM |
| UACAUUGCAGUCUUCUUCGUCCUAGAUGACUAGGAUAUCAGGAAACUGAGAAGGAGUCACUGCAGUGAUGUUGCAGCUAGGACGA [KL-SSFMN-A9] | 110 nM | 118 nM | 110 nM | 121 nM | 105 nM |
| UACUAUAGUGAUGUUAUAGAUAAACCAGAUACCAGUGUGACAUAACACCCUUGGCAGCUGAUAAGGGAACAUAUGAAAACAUAUG [AstroSSTHeAED5.17] | 146 nM | 120 nM | 132 nM | 120 nM | 128 nM |
| UACUUUAAUUUAUAACUAUCUUUAUUUUGUCAGGAUAUCGUAUAGUCGAGAAGGGACUCUAUCAAGUGAUGUUUGAUAUAUCGUU [JR_SSFMNA_Sub025] | 140 nM | 155 nM | 131 nM | 147 nM | 112 nM |
| UAGCGUAUCAGAGGAUAUGAUAUGUUAUGCAGUGAUGUUGCAUGAUGUAGCAGAAUUCUGAGUGUAUCAGAAGGCUGAUAUGCUA [FMN B Ex t3] | 171 nM | 87.8 nM | 90.5 nM | 78.9 nM | 88.6 nM |
| UAGGAGUGAUGUUCCUAUAGCAGGUAGGAAGGAGCGCCCAUUUGGGCAGGUAGGUCGCCUACCGGCCCUAAGUUAAACCUUAGGC [Rariar] | 99.6 nM | 111 nM | 92.6 nM | 109 nM | 89 nM |
| UAGGGCCCUGGAGGAUAUGAGUCUAGUGAUGUUAGGCGGUCCAUGCGCGUGGCGCGUUAUGCCCUUUUAGAAGGCCAGGGCCCUA [#2 Exclusion - FMN B Attempt #17 (HarryS)] | 119 nM | 72.8 nM | 99 nM | 99.3 nM | 92.4 nM |
| UAGGGUUGAAAAGGAUAUUUACCCUAUGUCAACGAGUGAUGUUCGUGGACAUUAGGCACAACUCGUAAAGAAGGUUUCCAGACUC [theeternabot_sameState_KL_FMN_B_39] | 93 nM | 87.5 nM | 95 nM | 97.5 nM | 95.7 nM |
| UAGUAUAAUCUGUCGUUUACAAUAUUUAGUCAGGAUAUCGUAUAUUCGAGAAGGGACACUAUCUAGUGAUGUUAGAUAUUUCUUU [JR_ExcFMNA_Sub013] | 46.8 nM | 78.2 nM | 54.9 nM | 71.4 nM | 52.8 nM |
| UAGUCAUACAGAGGAUAUCGUAUGAGUGAUGUUCAUACGACAUAAUCGAGUUGUAUCGAUGUUCGACGAGAAGGCUGUAUGACUA [FMN B Ex t1b] | 210 nM | 89.6 nM | 118 nM | 106 nM | 111 nM |
| UAUAGACAAGUGAUGUUUGUCAUAUCCGAAGGAGCGUCUUCUAAGACAGGUAGGUCGCGGAUUAAUUUUGUUAUGAUACUAUUUA [JR_SSArginiA_Sub016] | 122 nM | 120 nM | 126 nM | 133 nM | 104 nM |
| UAUAUACAUUUAUUAAUUAAAGGUUCAGAAGGAGCGUGAAUUAACACAGGUAGGUCGCUGAGCGAGUGAUGUUCGCUAUAUGGAA [JR_ExcArginiA_Sub006] | 54.1 nM | 69.3 nM | 57 nM | 81 nM | 50.4 nM |
| UAUAUAGUGACGGCCGCCACUAUAUUAAUGUUUUUGUUAGAGUGAUGUUUUGAUUAAUAUUUUUAUAGGACCGGGUUAUAUGUUA [xzzxmullin] | 657 nM | 403 nM | 634 nM | 628 nM | 558 nM |
| UAUAUAGUGACGGCCGCCACUAUAUUAAUGUUUUUGUUAGAGUGAUGUUUUGUUUAAUAUUUUUAUAGGACCGGGUUAUAUGUUA [zsqqxmullin] | 569 nM | 338 nM | 641 nM | 557 nM | 580 nM |
